Usually Kd stands for the concentration at which binding is half-saturated. High values mean weaker binding, low ones tighter binding.

The assay has as its target human His6-TfR1, P02786. Description: SPR. The conditions noted are these: chain shown with the change.

Chain of human His6-TfR1, P02786 (P02786 89-760): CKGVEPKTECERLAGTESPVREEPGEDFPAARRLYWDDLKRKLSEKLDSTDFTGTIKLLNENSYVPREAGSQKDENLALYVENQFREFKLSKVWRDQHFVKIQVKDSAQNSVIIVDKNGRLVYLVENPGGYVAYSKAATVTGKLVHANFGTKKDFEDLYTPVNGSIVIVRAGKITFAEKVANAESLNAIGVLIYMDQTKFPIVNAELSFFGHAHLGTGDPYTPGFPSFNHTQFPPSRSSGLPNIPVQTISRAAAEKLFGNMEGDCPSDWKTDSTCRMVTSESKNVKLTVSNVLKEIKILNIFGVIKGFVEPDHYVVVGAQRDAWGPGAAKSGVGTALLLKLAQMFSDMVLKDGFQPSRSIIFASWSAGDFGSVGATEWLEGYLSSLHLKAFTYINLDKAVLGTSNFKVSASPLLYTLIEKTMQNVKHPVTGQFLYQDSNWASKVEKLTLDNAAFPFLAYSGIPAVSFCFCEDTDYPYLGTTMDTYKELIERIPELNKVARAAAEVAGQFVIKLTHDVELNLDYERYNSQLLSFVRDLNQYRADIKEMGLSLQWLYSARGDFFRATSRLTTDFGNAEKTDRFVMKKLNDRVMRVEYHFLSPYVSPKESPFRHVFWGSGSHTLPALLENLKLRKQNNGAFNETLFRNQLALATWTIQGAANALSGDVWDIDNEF

CSPDAHLGCISYC [BCY15468 Ni:A del; Ti:A del; Nii:Ac (N-terminal acetyl cap)] came in with a Kd of 46 nM.

The values above are taken from article PMC11983102, “Conjugation to a transferrin receptor 1-binding Bicycle peptide enhances ASO and siRNA potency in skeletal and cardiac muscles” (Nucleic Acids Research, 2025).
